Source: patent US20180148504A1

Assays:
[1] = molecular target: recombinant purified FRα (ECL assay calibrator) (human) (UniProt P15328); assay: ECL sandwich competition; competitors 9F3 capture / 24F12 detection; FRα standard STD05; MORAb-003 10 µg/mL
[2] = molecular target: recombinant purified FRα (ECL assay calibrator) (human) (UniProt P15328); assay: ECL sandwich capture 19D4.B7 / detection 5C12.H8; calibrator incubated overnight with 10 µg/mL MORAb-003
[3] = molecular target: endogenous folate receptor alpha in human serum and plasma samples (human) (UniProt P15328); assay: ECL sandwich capture 19D4.B7 / detection 1A8.G11.E7; serum incubated overnight with 10 µg/mL MORAb-003
[4] = molecular target: recombinant purified FRα (ECL assay calibrator) (human) (UniProt P15328); assay: ECL sandwich capture 19D4.B7 / detection 2F11.F8; calibrator incubated overnight with 10 µg/mL MORAb-003
[5] = molecular target: endogenous folate receptor alpha in human serum and plasma samples (human) (UniProt P15328); assay: ECL sandwich capture 19D4.B7 / detection 26A9.C4; serum incubated overnight with 10 µg/mL MORAb-003
[6] = molecular target: recombinant purified FRα (ECL assay calibrator) (human) (UniProt P15328); assay: ECL sandwich capture 24H8.D3 / detection 19D4.B7; calibrator incubated overnight with 10 µg/mL MORAb-003
[7] = molecular target: recombinant purified FRα (ECL assay calibrator) (human) (UniProt P15328); assay: ECL sandwich capture 19D4.B7 / detection 24H8.D3; calibrator incubated overnight with 10 µg/mL MORAb-003
[8] = molecular target: endogenous folate receptor alpha in human serum and plasma samples (human) (UniProt P15328); assay: ECL sandwich capture 19D2.G9 / detection 19D4.B7; serum incubated overnight with 10 µg/mL MORAb-003
[9] = molecular target: recombinant purified FRα (ECL assay calibrator) (human) (UniProt P15328); assay: ECL sandwich capture 1C6.E12.G8 / detection 19D4.B7; calibrator incubated overnight with 10 µg/mL MORAb-003
[10] = molecular target: recombinant purified FRα (ECL assay calibrator) (human) (UniProt P15328); assay: ECL sandwich capture 19D4.B7 / detection 19D2.G9; calibrator incubated overnight with 10 µg/mL MORAb-003
[11] = molecular target: endogenous folate receptor alpha in human serum and plasma samples (human) (UniProt P15328); assay: ECL sandwich competition; competitors 24H8.D3 capture / 19D4.B7 detection; plasma of sample #DLSO-015; MORAb-003 100 µg/mL
[12] = molecular target: recombinant purified FRα (ECL assay calibrator) (human) (UniProt P15328); assay: ECL sandwich competition; competitors 9F3 capture / 24F12 detection; FRα standard STD03; MORAb-003 10 µg/mL
[13] = molecular target: recombinant purified FRα (ECL assay calibrator) (human) (UniProt P15328); assay: ECL sandwich capture 30G6.G6.G4.E9 / detection 6A2.G7; calibrator incubated overnight with 10 µg/mL MORAb-003
[14] = molecular target: recombinant purified FRα (ECL assay calibrator) (human) (UniProt P15328); assay: ECL sandwich capture 30G6.G6.G4.E9 / detection 24H8.D3; calibrator incubated overnight with 10 µg/mL MORAb-003
[15] = molecular target: recombinant purified FRα (ECL assay calibrator) (human) (UniProt P15328); assay: ECL sandwich capture 19D2.G9 / detection 6A2.G7; calibrator incubated overnight with 10 µg/mL MORAb-003
[16] = molecular target: endogenous folate receptor alpha in human serum and plasma samples (human) (UniProt P15328); assay: ECL sandwich capture 19D4.B7 / detection 24H8.D3; serum incubated overnight with 10 µg/mL MORAb-003
[17] = molecular target: recombinant purified FRα (ECL assay calibrator) (human) (UniProt P15328); assay: ECL sandwich competition; competitors 9F3 capture / 24F12 detection; FRα standard STD06; MORAb-003 50 µg/mL
[18] = molecular target: recombinant purified FRα (ECL assay calibrator) (human) (UniProt P15328); assay: ECL sandwich capture 1D2.G8.G10 / detection 30G6.G6.G4.E9; calibrator incubated overnight with 10 µg/mL MORAb-003
[19] = molecular target: recombinant purified FRα (ECL assay calibrator) (human) (UniProt P15328); assay: ECL sandwich capture 19D4.B7 / detection 26A9.C4; calibrator incubated overnight with 10 µg/mL MORAb-003
[20] = molecular target: recombinant purified FRα (ECL assay calibrator) (human) (UniProt P15328); assay: ECL sandwich capture 24H8.F3 / detection 30G6.G6.G4.E9; calibrator incubated overnight with 10 µg/mL MORAb-003
[21] = molecular target: recombinant purified FRα (ECL assay calibrator) (human) (UniProt P15328); assay: ECL sandwich capture 19D4.B7 / detection 24H8.F3; calibrator incubated overnight with 10 µg/mL MORAb-003
[22] = molecular target: recombinant purified FRα (ECL assay calibrator) (human) (UniProt P15328); assay: ECL sandwich competition; competitors 9F3 capture / 24F12 detection; FRα standard STD05; MORAb-003 50 µg/mL
[23] = molecular target: recombinant purified FRα (ECL assay calibrator) (human) (UniProt P15328); assay: ECL sandwich capture 6A2.G7 / detection 30G6.G6.G4.E9; calibrator incubated overnight with 10 µg/mL MORAb-003
[24] = molecular target: endogenous folate receptor alpha in human serum and plasma samples (human) (UniProt P15328); assay: ECL sandwich capture 1A8.G11.E7 / detection 24H8.F3; serum incubated overnight with 10 µg/mL MORAb-003

recombinant purified FRα (ECL assay calibrator) (human), sequence (P15328 25-234 limits assumed): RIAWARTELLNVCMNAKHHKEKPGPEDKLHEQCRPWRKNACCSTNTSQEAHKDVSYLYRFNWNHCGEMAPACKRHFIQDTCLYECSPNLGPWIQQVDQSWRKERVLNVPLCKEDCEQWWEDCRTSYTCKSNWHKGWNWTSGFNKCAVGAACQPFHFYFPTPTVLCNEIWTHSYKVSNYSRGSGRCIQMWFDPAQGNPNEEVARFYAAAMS
endogenous folate receptor alpha in human serum and plasma samples (human), sequence (P15328 25-234 limits assumed, form in doubt): as the sequence (P15328 25-234 limits assumed) above

B1: farletuzumab (MORAb-003) (antibody, part only; not given: Constant regions, V domains shown, not shown: another chain or arm of the molecule)
VH: EVQLVESGGGVVQPGRSLRLSCSASGFTFSGYGLSWVRQAPGKGLEWVAMISSGGSYTYYADSVKGRFAISRDNAKNTLFLQMDSLRPEDTGVYFCARHGDDPAWFAYWGQGTPVTVSS
VL: DIQLTQSPSSLSASVGDRVTITCSVSSSISSNNLHWYQQKPGKAPKPWIYGTSNLASGVPSRFSGSGSGTDYTFTISSLQPEDIATYYCQQWSSYPYMYTFGQGTKVEIK
- % of signal without MORAb-003 (MORAb-003 interference) [1]: 71%
- Drug Suppression of Cal Signal at 500 pg/mL [2]: -10%
- Drug suppression of serum [3]: -4.92%
- Drug Suppression of Cal Signal at 500 pg/mL [4]: -4%
- Drug suppression of serum [5]: -3.77%
- Drug Suppression of Cal Signal at 500 pg/mL [6]: -3%
- Drug Suppression of Cal Signal at 500 pg/mL [7]: -6%
- Drug suppression of serum [8]: 4.68%
- Drug Suppression of Cal Signal at 500 pg/mL [9]: -11%
- Drug Suppression of Cal Signal at 500 pg/mL [10]: -19%
- percent inhibition (sample #DLSO-015, plasma) [11]: 10%
- % of signal without MORAb-003 (MORAb-003 interference) [12]: 61%
- Drug Suppression of Cal Signal at 500 pg/mL [13]: -5%
- Drug Suppression of Cal Signal at 500 pg/mL [14]: -2%
- Drug Suppression of Cal Signal at 500 pg/mL [15]: -4%
- Drug suppression of serum [16]: 4.49%
- % of signal without MORAb-003 (MORAb-003 interference) [17]: 78%
- Drug Suppression of Cal Signal at 500 pg/mL [18]: -11%
- Drug Suppression of Cal Signal at 500 pg/mL [19]: -14%
- Drug Suppression of Cal Signal at 500 pg/mL [20]: -6%
- Drug Suppression of Cal Signal at 500 pg/mL [21]: -14%
- % of signal without MORAb-003 (MORAb-003 interference) [22]: 75%
- Drug Suppression of Cal Signal at 500 pg/mL [23]: -1%
- Drug suppression of serum [24]: -61.3%
